For series [1], the target named is AP2 adaptor protein complex (endogenous). The series can be described thus: cell-based or functional assay.
Series [2] deals with endogenous PIPKIγ of HEK293 cells (UniProt O60331). The series can be described thus: co-IP from HEK293 cells expressing the Myc-tagged tail.
The target of another series is T1, β-catenin (UniProt P35222 2-781).
T1 sequence (looked up): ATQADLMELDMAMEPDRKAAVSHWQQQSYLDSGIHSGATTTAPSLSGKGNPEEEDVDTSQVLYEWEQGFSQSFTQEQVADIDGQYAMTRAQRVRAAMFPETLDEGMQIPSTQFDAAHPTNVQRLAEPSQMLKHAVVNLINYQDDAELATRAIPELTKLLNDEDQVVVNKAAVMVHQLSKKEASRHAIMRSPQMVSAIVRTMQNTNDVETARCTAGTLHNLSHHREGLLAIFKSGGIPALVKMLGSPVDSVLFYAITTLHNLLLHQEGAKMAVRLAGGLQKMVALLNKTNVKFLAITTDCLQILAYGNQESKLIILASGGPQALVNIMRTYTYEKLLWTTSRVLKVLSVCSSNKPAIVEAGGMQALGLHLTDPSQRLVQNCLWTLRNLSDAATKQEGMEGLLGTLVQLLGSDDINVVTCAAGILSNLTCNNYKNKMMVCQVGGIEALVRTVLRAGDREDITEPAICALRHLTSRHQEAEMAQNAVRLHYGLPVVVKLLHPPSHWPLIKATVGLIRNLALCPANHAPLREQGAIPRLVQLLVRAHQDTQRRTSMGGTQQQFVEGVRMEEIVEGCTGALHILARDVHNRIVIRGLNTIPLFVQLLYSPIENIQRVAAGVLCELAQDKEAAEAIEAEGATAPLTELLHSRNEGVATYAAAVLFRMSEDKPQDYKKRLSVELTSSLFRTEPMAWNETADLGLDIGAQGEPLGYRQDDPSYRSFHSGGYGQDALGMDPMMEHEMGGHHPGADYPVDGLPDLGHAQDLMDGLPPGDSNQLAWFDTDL
The series can be described thus: immunoprecipitation from HEK293 cells.

Series [3] addresses AP2 adaptor protein complex (endogenous).

Chain of endogenous PIPKIγ of HEK293 cells (O60331 whole entry): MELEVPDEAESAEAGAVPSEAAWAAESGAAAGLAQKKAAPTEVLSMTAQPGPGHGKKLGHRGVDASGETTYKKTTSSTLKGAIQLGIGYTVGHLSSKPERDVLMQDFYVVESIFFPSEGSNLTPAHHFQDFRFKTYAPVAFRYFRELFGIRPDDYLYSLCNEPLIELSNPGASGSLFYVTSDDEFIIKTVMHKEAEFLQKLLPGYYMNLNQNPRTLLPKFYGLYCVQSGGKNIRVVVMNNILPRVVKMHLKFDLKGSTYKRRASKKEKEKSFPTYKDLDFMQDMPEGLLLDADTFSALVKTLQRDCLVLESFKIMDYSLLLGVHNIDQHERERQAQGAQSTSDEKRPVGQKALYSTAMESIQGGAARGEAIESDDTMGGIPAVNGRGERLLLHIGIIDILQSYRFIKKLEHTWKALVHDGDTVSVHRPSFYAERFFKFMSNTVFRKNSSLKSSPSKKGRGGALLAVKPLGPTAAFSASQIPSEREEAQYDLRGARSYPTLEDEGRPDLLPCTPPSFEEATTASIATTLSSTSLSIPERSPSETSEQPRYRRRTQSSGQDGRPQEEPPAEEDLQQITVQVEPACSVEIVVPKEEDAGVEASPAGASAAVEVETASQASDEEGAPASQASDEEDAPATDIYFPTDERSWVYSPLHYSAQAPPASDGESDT

As for “HA-tagged wild-type PIPKIγ661 (from UniProt O70161 1-661) (enzyme)”, the internalized ALEXA Fluor 647 transferrin, mean fluorescence intensity relative to nonexpressing cells (flow cytometry, MDCK) in series [1] was > 40 % increase.
In series [2], “c-Myc-tagged dimeric E-cadherin C-terminus (Myc-HR-ECDT) (from UniProt P12830 731-882)” gave a fold affinity against the monomer of 10 fold.

B1: E-cadherin Val832Met (receptor, UniProt P12830 155-882, looked up)
chain: DWVIPPISCPENEKGPFPKNLVQIKSNKDKEGKVFYSITGQGADTPPVGVFIIERETGWLKVTEPLDRERIATYTLFSHAVSSNGNAVEDPMEILITVTDQNDNKPEFTQEVFKGSVMEGALPGTSVMEVTATDADDDVNTYNAAIAYTILSQDPELPDKNMFTINRNTGVISVVTTGLDRESFPTYTLVVQAADLQGEGLSTTATAVITVTDTNDNPPIFNPTTYKGQVPENEANVVITTLKVTDADAPNTPAWEAVYTILNDDGGQFVVTTNPVNNDGILKTAKGLDFEAKQQYILHVAVTNVVPFEVSLTTSTATVTVDVLDVNEAPIFVPPEKRVEVSEDFGVGQEITSYTAQEPDTFMEQKITYRIWRDTANWLEINPDTGAISTRAELDREDFEHVKNSTYTALIIATDNGSPVATGTGTLLLILSDVNDNAPIPEPRTIFFCERNPKPQVINIIDADLPPNTSPFTAELTHGASANWTIQYNDPTQESIILKPKMALEVGDYKINLKLMDNQNKDQVTTLEVSVCDCEGAAGVCRKAQPVEAGLQIPAILGILGGILALLILILLLLLFLRRRAVVKEPLLPPEDDTRDNVYYYDEEGGGEEDQDFDLSQLHRGLDARPEVTRNDVAPTLMSVPRYLPRPANPDEIGNFIDENLKAADTDPTAPPYDSLLMFDYEGSGSEAASLSSLNSSESDKDQDYDYLNEWGNRFKKLADMYGGGEDD
notes: whole, on cells; Expressed in HEK293 cells and co-immunoprecipitated from lysates; also called Val832Met E-cadherin mutant
With B1, in the series with β-catenin, the binding result is given as “binds”.

B2: HA-tagged PIPKIγ635 (protein)
chain: MELEVPDEAESAEAGAVTAEAAWSAESGAAAGMTQKKAGLAEAPLVTGQPGPGHGKKLGHRGVDASGETTYKKTTSSTLKGAIQLGIGYTVGNLSSKPERDVLMQDFYVVESIFFPSEGSNLTPAHHFQDFRFKTYAPVAFRYFRELFGIRPDDYLYSLCNEPLIELSNPGASGSVFYVTSDDEFIIKTVMHKEAEFLQKLLPGYYMNLNQNPRTLLPKFYGLYCVQSGGKNIRVVVMNNVLPRVVKMHLKFDLKGSTYKRRASKKEKEKSLPTYKDLDFMQDMPEGLLLDSDTFGALVKTLQRDCLVLESFKIMDYSLLLGVHNIDQQERERQAEGAQSKADEKRPVAQKALYSTAMESIQGGAARGEAIETDDTMGGIPAVNGRGERLLLHIGIIDILQSYRFIKKLEHTWKALVHDGDTVSVHRPSFYAERFFKFMSSTVFRKSSSLKSSPSKKGRGALLAVKPLGPTAAFSASQIPSEREDVQYDLRGARSYPTLEDEGRPDLLPCTPPSFEEATTASIATTLSSTSLSIPERSPSDTSEQPRYRRRTQSSGQDGRPQEEPHAEDLQKITVQVEPVCGVGVVPKEEGAGVEVPPCGASAAASVEIDAASQASEPASQASDEEDAPSTDIYF
On to B2, for which the “transferrin endocytosis (MDCK stable line)” value in series [3] is “had no appreciable effect on transferrin endocytosis”.

The values are drawn from patent publication US20070161060A1 (published 2007).
